Measured values reported in the supplement of paper PMC9112550, “Optimization of the antimicrobial peptide Bac7 by deep mutational scanning” (BMC Biology, 2022).

Test system: Escherichia coli TOP10
Assay: shrunken log2 fold change of peptide-encoding DNA abundance (4.5 h post-induction vs induction); higher = less antimicrobial activity (less host growth inhibition)
Conditions: time post-induction: 4.5 h; library: site-saturation at positions 5, 18, 19, 20
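Also: peptides expressed intracellularly from a pBAD plasmid library in pooled LB shake-flask culture, induced with 0.3% L-arabinose, DNA abundance read by NGS, three biological replicates, DESeq2 with apeglm shrinkage.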

Compared with RRIRTRPPRLPRPRPRPLSAPRP, RRIRHRPPRLPRPRPRPSTQPRP is lower in “shrunken log2 fold change” value: 0.369 for the first, -0.0473 for the second.

Going from RRIRKRPPRLPRPRPRPSSYPRP to RRIRSRPPRLPRPRPRPRVVPRP, the “shrunken log2 fold change” value rises from 0.0295 to 0.245.

Going from RRIRQRPPRLPRPRPRPWCMPRP to RRIRHRPPRLPRPRPRPTCEPRP, the “shrunken log2 fold change” value rises from -0.342 to 0.012.

RRIRERPPRLPRPRPRPWDNPRP and RRIRERPPRLPRPRPRPEQAPRP are within 0.2 log units of each other in “shrunken log2 fold change” value: -0.021 for the first, 0.143 for the second.

RRIRNRPPRLPRPRPRPQIRPRP and RRIRERPPRLPRPRPRPYRWPRP are within 0.2 log units of each other in “shrunken log2 fold change” value: -0.0373 for the first, -0.0887 for the second.

Compared with RRIRMRPPRLPRPRPRPCPPPRP, RRIRGRPPRLPRPRPRPANQPRP is higher in “shrunken log2 fold change” value: 0.106 for the first, 0.329 for the second.

RRIRKRPPRLPRPRPRPGTKPRP and RRIRDRPPRLPRPRPRPMFEPRP are within 0.2 log units of each other in “shrunken log2 fold change” value: 0.0906 for the first, 0.0172 for the second.

First: RRIRGRPPRLPRPRPRPHPTPRP
Second: RRIRHRPPRLPRPRPRPNCMPRP
The “shrunken log2 fold change” value of the first is higher: 0.973 for the first, -0.0153 for the second.

RRIRIRPPRLPRPRPRPCLHPRP and RRIRFRPPRLPRPRPRPGLVPRP are within 0.2 log units of each other in “shrunken log2 fold change” value: -0.174 for the first, -0.0941 for the second.

First: RRIRERPPRLPRPRPRPFEIPRP
Second: RRIRWRPPRLPRPRPRPATPPRP
The “shrunken log2 fold change” value of the first is lower: -0.203 for the first, 0.755 for the second.

RRIRHRPPRLPRPRPRPCLSPRP and RRIRARPPRLPRPRPRPCHVPRP are within 0.2 log units of each other in “shrunken log2 fold change” value: 0.0289 for the first, -0.0999 for the second.

RRIRLRPPRLPRPRPRPWGVPRP and RRIRHRPPRLPRPRPRPMQIPRP are within 0.2 log units of each other in “shrunken log2 fold change” value: 0.0612 for the first, 0.093 for the second.

Compared with RRIRDRPPRLPRPRPRPWIPPRP, RRIRSRPPRLPRPRPRPGGYPRP is higher in “shrunken log2 fold change” value: -0.0565 for the first, 2.83 for the second.

RRIRTRPPRLPRPRPRPADIPRP and RRIRVRPPRLPRPRPRPDVFPRP are within 0.2 log units of each other in “shrunken log2 fold change” value: -0.0781 for the first, -0.0779 for the second.

Compared with RRIRYRPPRLPRPRPRPNFMPRP, RRIRMRPPRLPRPRPRPIFIPRP is higher in “shrunken log2 fold change” value: -0.821 for the first, 2.07 for the second.

RRIRNRPPRLPRPRPRPEKTPRP and RRIRIRPPRLPRPRPRPCNGPRP are within 0.2 log units of each other in “shrunken log2 fold change” value: -0.0226 for the first, -0.0882 for the second.

RRIRMRPPRLPRPRPRPWIKPRP and RRIRNRPPRLPRPRPRPEPFPRP are within 0.2 log units of each other in “shrunken log2 fold change” value: 0.101 for the first, -0.0904 for the second.

Compared with RRIRIRPPRLPRPRPRPYGEPRP, RRIRQRPPRLPRPRPRPAGTPRP is higher in “shrunken log2 fold change” value: -0.148 for the first, 0.134 for the second.

Compared with RRIRSRPPRLPRPRPRPNLAPRP, RRIRCRPPRLPRPRPRPNGSPRP is lower in “shrunken log2 fold change” value: -0.14 for the first, -0.398 for the second.

RRIRDRPPRLPRPRPRPFRKPRP and RRIRHRPPRLPRPRPRPIDMPRP are within 0.2 log units of each other in “shrunken log2 fold change” value: -0.0314 for the first, 0.0231 for the second.

Going from RRIRIRPPRLPRPRPRPAAEPRP to RRIRGRPPRLPRPRPRPPCAPRP, the “shrunken log2 fold change” value rises from 0.197 to 0.978.

First: RRIRWRPPRLPRPRPRPFCKPRP
Second: RRIRWRPPRLPRPRPRPKHIPRP
The “shrunken log2 fold change” value of the first is higher: -0.13 for the first, -0.41 for the second.

RRIRHRPPRLPRPRPRPSRFPRP and RRIRVRPPRLPRPRPRPFFFPRP are within 0.2 log units of each other in “shrunken log2 fold change” value: 0.0223 for the first, 0.151 for the second.

RRIRSRPPRLPRPRPRPGNGPRP and RRIRSRPPRLPRPRPRPMEVPRP are within 0.2 log units of each other in “shrunken log2 fold change” value: -0.0508 for the first, -0.00803 for the second.

Compared with RRIRRRPPRLPRPRPRPSYGPRP, RRIRIRPPRLPRPRPRPWDFPRP is higher in “shrunken log2 fold change” value: -0.83 for the first, -0.11 for the second.

RRIRRRPPRLPRPRPRPCGIPRP and RRIRARPPRLPRPRPRPRCCPRP are within 0.2 log units of each other in “shrunken log2 fold change” value: 0.506 for the first, 0.582 for the second.

Compared with RRIRMRPPRLPRPRPRPMLWPRP, RRIRPRPPRLPRPRPRPSYQPRP is lower in “shrunken log2 fold change” value: 0.19 for the first, -0.493 for the second.

RRIRLRPPRLPRPRPRPCVRPRP and RRIRDRPPRLPRPRPRPWPRPRP are within 0.2 log units of each other in “shrunken log2 fold change” value: 0.0511 for the first, 0.211 for the second.

First: RRIRMRPPRLPRPRPRPENHPRP
Second: RRIRGRPPRLPRPRPRPRQTPRP
The “shrunken log2 fold change” value of the first is higher: 0.0929 for the first, -0.144 for the second.

Going from RRIRGRPPRLPRPRPRPTKEPRP to RRIRTRPPRLPRPRPRPPMTPRP, the “shrunken log2 fold change” value falls from 0.439 to 0.172.

First: RRIRPRPPRLPRPRPRPWCMPRP
Second: RRIRHRPPRLPRPRPRPHMHPRP
The “shrunken log2 fold change” value of the first is higher: -0.355 for the first, -0.687 for the second.

First: RRIRRRPPRLPRPRPRPNATPRP
Second: RRIRVRPPRLPRPRPRPKRGPRP
The “shrunken log2 fold change” value of the first is higher: 0.703 for the first, 0.054 for the second.

Compared with RRIRARPPRLPRPRPRPEDIPRP, RRIRVRPPRLPRPRPRPIPHPRP is lower in “shrunken log2 fold change” value: 0.473 for the first, -0.307 for the second.

RRIRQRPPRLPRPRPRPSWIPRP and RRIRLRPPRLPRPRPRPASMPRP are within 0.2 log units of each other in “shrunken log2 fold change” value: -0.225 for the first, -0.357 for the second.

RRIRPRPPRLPRPRPRPHQWPRP and RRIRYRPPRLPRPRPRPMFAPRP are within 0.2 log units of each other in “shrunken log2 fold change” value: -0.0599 for the first, -0.117 for the second.

RRIRRRPPRLPRPRPRPERRPRP and RRIRWRPPRLPRPRPRPGTNPRP are within 0.2 log units of each other in “shrunken log2 fold change” value: 0.418 for the first, 0.243 for the second.

RRIRNRPPRLPRPRPRPLLRPRP and RRIRQRPPRLPRPRPRPYDCPRP are within 0.2 log units of each other in “shrunken log2 fold change” value: -0.267 for the first, -0.195 for the second.

Going from RRIRMRPPRLPRPRPRPDCSPRP to RRIRMRPPRLPRPRPRPFFIPRP, the “shrunken log2 fold change” value falls from 0.172 to -0.247.

Compared with RRIRHRPPRLPRPRPRPNSNPRP, RRIRARPPRLPRPRPRPCESPRP is higher in “shrunken log2 fold change” value: -1.16 for the first, 0.214 for the second.

Going from RRIRLRPPRLPRPRPRPLDQPRP to RRIRFRPPRLPRPRPRPSAYPRP, the “shrunken log2 fold change” value falls from 0.105 to -0.791.

Going from RRIRKRPPRLPRPRPRPIIMPRP to RRIRCRPPRLPRPRPRPMPKPRP, the “shrunken log2 fold change” value rises from -0.419 to 0.0972.

Compared with RRIRWRPPRLPRPRPRPYMNPRP, RRIRSRPPRLPRPRPRPKCEPRP is higher in “shrunken log2 fold change” value: -1.44 for the first, -0.125 for the second.

RRIRDRPPRLPRPRPRPEYLPRP and RRIRFRPPRLPRPRPRPMTKPRP are within 0.2 log units of each other in “shrunken log2 fold change” value: 0.0986 for the first, 0.0716 for the second.

RRIRGRPPRLPRPRPRPAAMPRP and RRIRSRPPRLPRPRPRPLTSPRP are within 0.2 log units of each other in “shrunken log2 fold change” value: 1.54 for the first, 1.55 for the second.

Going from RRIRNRPPRLPRPRPRPPFKPRP to RRIRWRPPRLPRPRPRPNEWPRP, the “shrunken log2 fold change” value rises from -0.325 to -0.0242.

Going from RRIRKRPPRLPRPRPRPPQTPRP to RRIRFRPPRLPRPRPRPSWNPRP, the “shrunken log2 fold change” value falls from 0.559 to -0.575.

First: RRIRFRPPRLPRPRPRPASVPRP
Second: RRIRGRPPRLPRPRPRPVKDPRP
The “shrunken log2 fold change” value of the first is lower: 0.344 for the first, 0.68 for the second.

RRIRIRPPRLPRPRPRPGIAPRP and RRIRNRPPRLPRPRPRPYDEPRP are within 0.2 log units of each other in “shrunken log2 fold change” value: -0.184 for the first, -0.0237 for the second.

RRIRYRPPRLPRPRPRPHTWPRP and RRIRFRPPRLPRPRPRPGANPRP are within 0.2 log units of each other in “shrunken log2 fold change” value: -0.0877 for the first, -0.0673 for the second.

RRIRIRPPRLPRPRPRPQEHPRP and RRIRHRPPRLPRPRPRPKWPPRP are within 0.2 log units of each other in “shrunken log2 fold change” value: -0.0111 for the first, 0.0116 for the second.

Compared with RRIRKRPPRLPRPRPRPRGRPRP, RRIRIRPPRLPRPRPRPYMPPRP is lower in “shrunken log2 fold change” value: 1.04 for the first, -1.27 for the second.

RRIRDRPPRLPRPRPRPAGIPRP and RRIRIRPPRLPRPRPRPQDFPRP are within 0.2 log units of each other in “shrunken log2 fold change” value: -0.00461 for the first, -0.1 for the second.

First: RRIRGRPPRLPRPRPRPYARPRP
Second: RRIRSRPPRLPRPRPRPHRTPRP
The “shrunken log2 fold change” value of the first is higher: 0.416 for the first, -0.0768 for the second.

Compared with RRIRRRPPRLPRPRPRPPQAPRP, RRIRCRPPRLPRPRPRPGPTPRP is lower in “shrunken log2 fold change” value: 1.19 for the first, 0.848 for the second.

RRIRERPPRLPRPRPRPLVVPRP and RRIRVRPPRLPRPRPRPEKLPRP are within 0.2 log units of each other in “shrunken log2 fold change” value: 0.0509 for the first, 0.0465 for the second.

Going from RRIRSRPPRLPRPRPRPIHGPRP to RRIRQRPPRLPRPRPRPQFNPRP, the “shrunken log2 fold change” value falls from -0.159 to -0.6.

First: RRIRRRPPRLPRPRPRPDKVPRP
Second: RRIRERPPRLPRPRPRPDEHPRP
The “shrunken log2 fold change” value of the first is higher: -0.053 for the first, -0.274 for the second.

Compared with RRIRIRPPRLPRPRPRPTYIPRP, RRIRNRPPRLPRPRPRPIMSPRP is higher in “shrunken log2 fold change” value: -1.29 for the first, -0.103 for the second.

RRIRTRPPRLPRPRPRPHYIPRP and RRIRNRPPRLPRPRPRPKIRPRP are within 0.2 log units of each other in “shrunken log2 fold change” value: -0.105 for the first, -0.0344 for the second.

RRIRARPPRLPRPRPRPEWIPRP and RRIRNRPPRLPRPRPRPCKKPRP are within 0.2 log units of each other in “shrunken log2 fold change” value: 0.129 for the first, -0.0371 for the second.

First: RRIRIRPPRLPRPRPRPHDEPRP
Second: RRIRTRPPRLPRPRPRPRRKPRP
The “shrunken log2 fold change” value of the first is lower: -0.463 for the first, 0.0652 for the second.

Going from RRIRWRPPRLPRPRPRPNCEPRP to RRIRYRPPRLPRPRPRPDGFPRP, the “shrunken log2 fold change” value falls from 0.0915 to -0.418.

For RRIRERPPRLPRPRPRPGGYPRP, the “shrunken log2 fold change” value was -0.563.
